Test results published in patent publication US20230355720A1, “PHARMACEUTICAL COMPOSITION FOR PREVENTING OR TREATING BONE DISEASES, COMPRISING TRIPLE AGONIST OR CONJUGATE THEREOF HAVING ACTIVITY WITH RESPECT TO ALL OF GLUCAGON, GLP-1 AND GLP RECEPTORS” (HANMI PHARM. CO., LTD., priority 2020, published 2023).
Bridge positions count the residues as written; N and C are the ends. Square brackets hold non-standard residues; d marks the D form. Ends that are not written are not given here. * marks the point of attachment. Acetyl(2-(4-imidazolyl)) = O=C(Cc1c[nH]cn1)*; Aib = CC(C)(N)C(=O)O

T1: human GIP receptor (human, UniProt P48546 22-466)
T1 sequence (looked up): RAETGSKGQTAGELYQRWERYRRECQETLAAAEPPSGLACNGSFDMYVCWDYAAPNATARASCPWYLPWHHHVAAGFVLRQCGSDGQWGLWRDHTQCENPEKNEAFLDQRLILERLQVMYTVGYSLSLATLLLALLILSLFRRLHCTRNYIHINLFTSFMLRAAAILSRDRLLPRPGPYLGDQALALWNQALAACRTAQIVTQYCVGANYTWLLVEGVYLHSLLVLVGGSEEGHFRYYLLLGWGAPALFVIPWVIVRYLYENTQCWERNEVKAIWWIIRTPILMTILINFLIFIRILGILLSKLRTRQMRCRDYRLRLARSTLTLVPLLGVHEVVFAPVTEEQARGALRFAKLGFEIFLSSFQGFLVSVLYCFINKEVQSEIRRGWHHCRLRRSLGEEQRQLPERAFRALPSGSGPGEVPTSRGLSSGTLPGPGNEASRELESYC


Key:
Experiment in all cases: cell-based or functional assay
[1] = biological target: T1, human GIP receptor
[2] = biological target: human GCG receptor (human, UniProt P47871 26-477)
Sequence of human GCG receptor (P47871 26-477): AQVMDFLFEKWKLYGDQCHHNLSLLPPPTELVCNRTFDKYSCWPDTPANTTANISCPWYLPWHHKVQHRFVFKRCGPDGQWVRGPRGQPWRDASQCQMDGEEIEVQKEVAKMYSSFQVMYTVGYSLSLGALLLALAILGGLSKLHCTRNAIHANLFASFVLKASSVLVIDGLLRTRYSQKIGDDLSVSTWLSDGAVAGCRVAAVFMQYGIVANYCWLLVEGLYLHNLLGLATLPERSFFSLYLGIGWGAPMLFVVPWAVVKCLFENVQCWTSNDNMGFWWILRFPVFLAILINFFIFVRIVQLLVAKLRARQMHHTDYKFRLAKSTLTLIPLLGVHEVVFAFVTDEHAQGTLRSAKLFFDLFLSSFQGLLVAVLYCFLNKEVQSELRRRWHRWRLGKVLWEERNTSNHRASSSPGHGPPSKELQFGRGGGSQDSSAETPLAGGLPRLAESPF

[3] = biological target: human GLP-1 receptor (human, UniProt P43220 24-463)

| Binder | In vitro activity (%) compared with native peptide, vs GIP [1] [%] | In vitro activity (%) compared with native peptide, vs Glucagon [2] [%] | In vitro activity (%) compared with native peptide, vs GLP-1 [3] [%] |
| --- | --- | --- | --- |
| H[Aib]QGTFTSDVSSYLDGQAAKEFIAWLVKGC [triple agonist of SEQ ID NO: 1] | < 0.1 | < 0.1 | 3.2 |
| H[Aib]QGTFTSDYSIAMDEIHQKDFVNWLLNTC (bridge 16-20) [triple agonist of SEQ ID NO: 57] | 0.3 | < 0.1 | 11.7 |
| H[Aib]QGTFTSDVSSYLLGQQQKEFIAWLVKGGGPSSGAPPPSC [triple agonist of SEQ ID NO: 5] | < 0.1 | < 0.1 | 42.1 |
| Y[Aib]QGTFTSDYSKYLDEKRAKEFVQWLLDHHPSSGQPPPSC (bridge 16-20) [triple agonist of SEQ ID NO: 42] | 7.8 | 206 | 33.9 |
| Y[Aib]QGTFTSDYSKYLDEKRAKEFVQWLLDHHCSSGQPPPS (bridge 16-20) [triple agonist of SEQ ID NO: 43] | 3.7 | 88.4 | 12.6 |
| [Acetyl(2-(4-imidazolyl))][Aib]QGTFTSDKSSYLDERAAQDFVQWLLDGGPSSGAPPPSS (not fully specified) [triple agonist of SEQ ID NO: 38] |  |  | 2.3 |
| H[Aib]QGTFTSDKSKYLDECAAQDFVQWLLDGGPSSGAPPPS (not fully specified) [triple agonist of SEQ ID NO: 41] | < 0.1 | < 0.1 | 34.3 |
| H[Aib]QGTFTSDYSIAMDEIHQKDFVNWLLAQC (bridge 16-20; not fully specified) [triple agonist of SEQ ID NO: 55] | 2.4 | 0.7 | 27.1 |
| H[Aib]QGTFTSDVSSYLLGQQQKEFIAWLVKGC [triple agonist of SEQ ID NO: 4] | < 0.1 | < 0.1 | 8.5 |
| H[Aib]QGTFTSDVSSYLDGQAAKEFVAWLLKGC [triple agonist of SEQ ID NO: 6] | < 0.1 | < 0.1 | 17 |
| H[Aib]QGTFTSDYSKYLCEKRQKEFVQWLLNGGPSSGAPPPSG (bridge 16-20) [triple agonist of SEQ ID NO: 36] | 0.2 | 0.39 | 37.4 |
| H[Aib]QGTFTSDYSKYLDEKRAKEFVQWLLDHHPSSGQPPPSC (bridge 16-20) [triple agonist of SEQ ID NO: 50] | 2.7 | 50.5 | 67.4 |
| H[Aib]QGTFTSDYSKYLDEKRQKEFVQWLLNTKC (bridge 16-20) [triple agonist of SEQ ID NO: 58] | 0.2 | 2.6 | 39.1 |
| H[Aib]EGTFTSDYSIAMDEIHQKDFVNWLLAQC (bridge 16-20; not fully specified) [triple agonist of SEQ ID NO: 53] | 1.3 | 8.4 | 161 |
| H[Aib]QGTFTSDKSKYLDERACQDFVQWLLDGGPSSGAPPPS (not fully specified) [triple agonist of SEQ ID NO: 40] | < 0.1 | < 0.1 | 75.2 |
| H[Aib]QGTFTSDYSKYLDGQHAQCFVAWLLAGGGPSSGAPPPS [triple agonist of SEQ ID NO: 39] | < 0.1 | 0.53 | 13.9 |
| [Acetyl(2-(4-imidazolyl))][Aib]QGTFTSDYSIAMDEKHCKDFVNWLLNTK (bridge 16-20; not fully specified) [triple agonist of SEQ ID NO: 60] | 8.2 | < 0.1 | 106 |
| H[Aib]QGTFTSDYSKYLDECRQKEFVQWLLNGGPSSGAPPPSG (bridge 16-20) [triple agonist of SEQ ID NO: 37] | 2.2 | 6.21 | 236 |
| H[Aib]QGTFTSDYSKYLDEKRQKEFVNWLLAQKC (bridge 16-20) [triple agonist of SEQ ID NO: 34] | 0.6 | 0.92 | 19.1 |
| [Acetyl(2-(4-imidazolyl))][Aib]QGTFTSDYSICMDEIHQKDFVNWLLNTK (bridge 16-20) [triple agonist of SEQ ID NO: 49] | 3.3 | < 0.1 | 29.8 |
| [Acetyl(2-(4-imidazolyl))][Aib]QGTFTSDYSICMDEKHQKDFVNWLLNTK (bridge 16-20; not fully specified) [triple agonist of SEQ ID NO: 59] | 4 | < 0.1 | 40.3 |
| [Acetyl(2-(4-imidazolyl))][Aib]QGTFTSDKSKYLDERAAQDFVQWLLDGGPSSGAPPPS (not fully specified) [triple agonist of SEQ ID NO: 62] | < 0.1 | < 0.1 | 5.2 |
| H[Aib]EGTFTSDYSIAMDEIHQKDFVDWLLAEC (bridge 16-20) [triple agonist of SEQ ID NO: 54] | 0.1 | 1.4 | 30.6 |
| HGQGTFTSDCSKQLDGQAAQEFVAWLLAGGPSSGAPPPS [triple agonist of SEQ ID NO: 44] | < 0.1 | < 0.1 | 1.3 |
| HGQGTFTSDCSKYLDGQRAQDFVNWLLAGGPSSGAPPPS [triple agonist of SEQ ID NO: 48] | < 0.1 | < 0.1 | 1.5 |
| HGQGTFTSDCSKYMDGQAAQDFVAWLLAGGPSSGAPPPS [triple agonist of SEQ ID NO: 45] | < 0.1 | < 0.1 | 6.6 |
| HGQGTFTSDCSKYLDEQHAQEFVAWLLAGGPSSGAPPPS [triple agonist of SEQ ID NO: 46] | < 0.1 | < 0.1 | 1.4 |
| HGQGTFTSDCSKYLDGQRAQEFVAWLLAGGPSSGAPPPS [triple agonist of SEQ ID NO: 47] | < 0.1 | < 0.1 | 2.4 |
| [Acetyl(2-(4-imidazolyl))][Aib]QGTFTSDYSIAMDEIACKDFVNWLLNTK (bridge 16-20; not fully specified) [triple agonist of SEQ ID NO: 61] | 2.8 | < 0.1 | 59.8 |
